Source: IntAct's records for PubMed 32296183

B1: Golgi SNAP receptor complex member 2 (Homo sapiens), O14653 (parent)
chain: MDPLFQQTHKQVHEIQSCMGRLETADKQSVHIVENEIQASIDQIFSRLERLEILSSKEPPNKRQNARLRVDQLKYDVQHLQTALRNFQHRRHAREQQERQREELLSRTFTTNDSDTTIPMDESLQFNSSLQKVHNGMDDLILDGHNILDGLRTQRLTLKGTQKKILDIANMLGLSNTVMRLIEKRAFQDKYFMIGGMLLTCVVMFLVVQYLT
partner: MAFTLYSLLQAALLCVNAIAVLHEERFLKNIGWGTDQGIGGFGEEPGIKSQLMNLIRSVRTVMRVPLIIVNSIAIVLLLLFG
B2: Transmembrane protein 43 (Homo sapiens), Q9BTV4 (parent)
chain: MAANYSSTSTRREHVKVKTSSQPGFLERLSETSGGMFVGLMAFLLSFYLIFTNEGRALKTATSLAEGLSLVVSPDSIHSVAPENEGRLVHIIGALRTSKLLSDPNYGVHLPAVKLRRHVEMYQWVETEESREYTEDGQVKKETRYSYNTEWRSEIINSKNFDREIGHKNPSAMAVESFMATAPFVQIGRFFLSSGLIDKVDNFKSLSLSKLEDPHVDIIRRGDFFYHSENPKYPEVGDLRVSFSYAGLSGDDPDLGPAHVVTVIARQRGDQLVPFSTKSGDTLLLLHHGDFSAEEVFHRELRSNSMKTWGLRAAGWMAMFMGLNLMTRILYTLVDWFPVFRDLVNIGLKAFAFCVATSLTLLTVAAGWLFYRPLWALLIAGLALVPILVARTRVPAKKLE
partner: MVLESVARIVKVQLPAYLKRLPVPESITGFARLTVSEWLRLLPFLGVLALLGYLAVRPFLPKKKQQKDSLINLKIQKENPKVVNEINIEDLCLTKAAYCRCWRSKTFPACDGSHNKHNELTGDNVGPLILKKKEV
B3: Catenin alpha-3 (Homo sapiens), Q9UI47-2 (parent)
chain: MSAETPITLNIDPQDLQVQTFTVEKLLEPLIIQVTTLVNCPQNPSSRKKGRSKRASVLLASVEEATWNLLDKGEKIAQEATVLKDELTASLEEVRKESEALKVSAERFTDDPCFLPKREAVVQAARALLAAVTRLLILADMIDVMCLLQHVSAFQRTFESLKNVANKSDLQKTYQKLGKELENLDYLAFKRQQDLKSPNQRDEIAGARASLKENSPLLHSICSACLEHSDVASLKASKDTVCEEIQNALNVISNASQGIQNMTTPPEPQAATLGSALDELENLIVLNPLTVTEEEIRPSLEKRLEAIISGAALLADSSCTRDLHRERIIAECNAIRQALQDLLSEYMNNAGKKERSNTLNIALDNMCKKTRDLRRQLRKAIIDHVSDSFLDTTVPLLVLIEAAKNGREKEIKEYAAIFHEHTSRLVEVANLACSMSTNEDGIKIVKIAANHLETLCPQIINAALALAARPKSQAVKNTMEMYKRTWENHIHVLTEAVDDITSIDDFLAVSGMFLFF
partner: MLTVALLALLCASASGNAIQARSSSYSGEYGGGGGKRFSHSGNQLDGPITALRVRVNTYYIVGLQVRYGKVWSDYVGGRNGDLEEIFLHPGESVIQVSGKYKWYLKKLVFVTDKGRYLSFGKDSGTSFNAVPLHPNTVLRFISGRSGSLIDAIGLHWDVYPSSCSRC
B4: Ceroid-lipofuscinosis neuronal protein 6 (Homo sapiens), Q9NWW5 (parent)
chain: MEATRRRQHLGATGGPGAQLGASFLQARHGSVSADEAARTAPFHLDLWFYFTLQNWVLDFGRPIAMLVFPLEWFPLNKPSVGDYFHMAYNVITPFLLLKLIERSPRTLPRSITYVSIIIFIMGASIHLVGDSVNHRLLFSGYQHHLSVRENPIIKNLKPETLIDSFELLYYYDEYLGHCMWYIPFFLILFMYFSGCFTASKAESLIPGPALLLVAPSGLYYWYLVTEGQIFILFIFTFFAMLALVLHQKRKRLFLDSNGLFLFSSFALTLLLVALWVAWLWNDPVLRKKYPGVIYVPEPWAFYTLHVSSRH
partner: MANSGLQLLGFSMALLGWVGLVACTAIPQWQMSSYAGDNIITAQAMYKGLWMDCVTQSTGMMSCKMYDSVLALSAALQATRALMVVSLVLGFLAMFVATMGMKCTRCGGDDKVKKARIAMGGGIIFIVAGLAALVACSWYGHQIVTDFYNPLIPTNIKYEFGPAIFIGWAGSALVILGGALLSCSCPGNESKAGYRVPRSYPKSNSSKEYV
B5: Golgi SNAP receptor complex member 2 (Homo sapiens), O14653 (parent)
chain: B1 chain
partner: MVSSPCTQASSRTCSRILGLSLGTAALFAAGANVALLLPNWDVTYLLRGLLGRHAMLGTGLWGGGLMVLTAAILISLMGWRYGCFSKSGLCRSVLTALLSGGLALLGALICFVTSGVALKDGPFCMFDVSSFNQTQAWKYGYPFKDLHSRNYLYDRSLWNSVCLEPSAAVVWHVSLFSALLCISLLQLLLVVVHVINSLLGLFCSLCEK
B6: Transmembrane protein 43 (Homo sapiens), Q9BTV4 (parent)
chain: B2 chain
B7: Ceroid-lipofuscinosis neuronal protein 6 (Homo sapiens), Q9NWW5 (parent)
chain: B4 chain

Variants of: B1
Settings: with ir3ip_human IER3IP1, Q9Y5U9

Variant | effect of a mutation on the interaction
G144W | with no effect

Variants of: B2
Settings: with cisd2_human CISD2, Q8N5K1

Variant | effect of a mutation on the interaction
Y371H | with no effect
I91V | with no effect
R28W | with no effect
E85K | disrupting interaction strength
E142K | disrupting interaction strength

Variants of: B3
Settings: with zg16_human ZG16, O60844

Variant | effect of a mutation on the interaction
V94D | disrupting interaction strength

Variants of: B4
Settings: with cld7_human CLDN7, O95471

Variant | effect of a mutation on the interaction
R6T | disrupting interaction strength
G123D | with no effect

Variants of: B5
Settings: with TM4SF19, Q96DZ7

Variant | effect of a mutation on the interaction
G144W | with no effect

Variants of: B6
Settings: with ubp25_human USP25, Q9UHP3
ubp25_human USP25, Q9UHP3, sequence (Q9UHP3 whole entry): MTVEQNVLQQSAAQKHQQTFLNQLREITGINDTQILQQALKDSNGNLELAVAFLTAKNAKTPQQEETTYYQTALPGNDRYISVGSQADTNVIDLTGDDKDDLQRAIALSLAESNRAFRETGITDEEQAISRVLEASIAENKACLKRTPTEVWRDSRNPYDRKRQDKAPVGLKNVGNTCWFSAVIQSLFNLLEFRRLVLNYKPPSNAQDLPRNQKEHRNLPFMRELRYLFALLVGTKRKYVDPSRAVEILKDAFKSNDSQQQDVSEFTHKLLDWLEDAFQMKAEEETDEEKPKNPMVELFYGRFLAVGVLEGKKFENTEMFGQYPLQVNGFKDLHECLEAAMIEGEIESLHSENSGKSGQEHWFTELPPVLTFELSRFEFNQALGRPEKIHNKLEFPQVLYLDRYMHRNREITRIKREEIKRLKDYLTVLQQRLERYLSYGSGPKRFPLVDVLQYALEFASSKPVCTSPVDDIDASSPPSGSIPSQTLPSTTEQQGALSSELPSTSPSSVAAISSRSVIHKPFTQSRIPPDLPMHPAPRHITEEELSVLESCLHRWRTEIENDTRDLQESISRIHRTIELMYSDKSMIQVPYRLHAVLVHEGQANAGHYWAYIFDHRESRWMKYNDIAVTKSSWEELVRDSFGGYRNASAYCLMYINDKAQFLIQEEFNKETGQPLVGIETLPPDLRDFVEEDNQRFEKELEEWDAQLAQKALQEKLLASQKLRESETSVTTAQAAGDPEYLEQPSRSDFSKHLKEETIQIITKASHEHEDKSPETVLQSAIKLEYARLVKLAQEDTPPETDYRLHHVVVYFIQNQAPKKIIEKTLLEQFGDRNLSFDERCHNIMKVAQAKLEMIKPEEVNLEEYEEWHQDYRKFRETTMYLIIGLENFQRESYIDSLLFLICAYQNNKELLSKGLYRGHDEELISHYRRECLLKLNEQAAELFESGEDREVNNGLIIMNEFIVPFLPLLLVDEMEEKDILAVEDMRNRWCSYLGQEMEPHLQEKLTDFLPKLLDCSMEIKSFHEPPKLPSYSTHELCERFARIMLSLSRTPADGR

Variant | effect of a mutation on the interaction
R28W | with no effect
I91V | with no effect
Y371H | with no effect
E85K | with no effect
E142K | with no effect

Variants of: B6
Settings: with ar13b_human ARL13B
Target sequence in this assay (Q3SXY8 whole entry): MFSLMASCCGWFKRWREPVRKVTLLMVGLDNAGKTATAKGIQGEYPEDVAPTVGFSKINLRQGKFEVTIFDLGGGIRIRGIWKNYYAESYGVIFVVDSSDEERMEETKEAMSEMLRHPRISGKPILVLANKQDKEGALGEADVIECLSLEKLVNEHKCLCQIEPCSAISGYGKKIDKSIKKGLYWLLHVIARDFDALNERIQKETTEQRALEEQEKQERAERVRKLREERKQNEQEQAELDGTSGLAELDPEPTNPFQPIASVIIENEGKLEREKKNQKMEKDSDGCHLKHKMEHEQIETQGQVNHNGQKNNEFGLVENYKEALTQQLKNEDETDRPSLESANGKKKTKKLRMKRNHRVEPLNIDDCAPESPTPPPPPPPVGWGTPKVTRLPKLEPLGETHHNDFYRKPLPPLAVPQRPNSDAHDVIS

Variant | effect of a mutation on the interaction
R28W | disrupting interaction strength
I91V | with no effect
Y371H | with no effect
E85K | disrupting interaction strength
E142K | disrupting interaction strength

Variants of: B6
Settings: with FGA

Variant | effect of a mutation on the interaction
R28W | with no effect
I91V | with no effect
Y371H | with no effect
E85K | with no effect
E142K | with no effect

Variants of: B6
Settings: with PCYT1B

Variant | effect of a mutation on the interaction
R28W | with no effect
I91V | with no effect
Y371H | with no effect
E85K | with no effect
E142K | with no effect

Variants of: B6
Settings: with zch12_human ZCCHC12, Q6PEW1
zch12_human ZCCHC12, Q6PEW1, sequence (Q6PEW1 whole entry): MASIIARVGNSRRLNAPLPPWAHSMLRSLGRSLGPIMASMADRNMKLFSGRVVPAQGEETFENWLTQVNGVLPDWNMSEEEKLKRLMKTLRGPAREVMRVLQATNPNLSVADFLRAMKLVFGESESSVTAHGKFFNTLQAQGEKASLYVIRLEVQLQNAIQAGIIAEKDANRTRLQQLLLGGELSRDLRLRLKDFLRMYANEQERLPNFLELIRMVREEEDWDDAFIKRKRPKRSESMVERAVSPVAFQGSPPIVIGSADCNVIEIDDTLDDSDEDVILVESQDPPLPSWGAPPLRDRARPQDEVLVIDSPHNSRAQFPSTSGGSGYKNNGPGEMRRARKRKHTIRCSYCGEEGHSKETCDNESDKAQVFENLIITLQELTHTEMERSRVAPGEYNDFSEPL

Variant | effect of a mutation on the interaction
R28W | with no effect
I91V | with no effect
Y371H | with no effect
E85K | with no effect
E142K | with no effect

Variants of: B7
Settings: with stx1a_human STX1A

Variant | effect of a mutation on the interaction
G123D | with no effect
R103Q | with no effect

Variants of: B7
Settings: with ar13b_human ARL13B
Target sequence in this assay (Q3SXY8 whole entry): as the sequence (Q3SXY8 whole entry) above

Variant | effect of a mutation on the interaction
G123D | with no effect

Variants of: B7
Settings: with cxa8_human GJA8, P48165
cxa8_human GJA8, P48165, sequence (P48165 whole entry): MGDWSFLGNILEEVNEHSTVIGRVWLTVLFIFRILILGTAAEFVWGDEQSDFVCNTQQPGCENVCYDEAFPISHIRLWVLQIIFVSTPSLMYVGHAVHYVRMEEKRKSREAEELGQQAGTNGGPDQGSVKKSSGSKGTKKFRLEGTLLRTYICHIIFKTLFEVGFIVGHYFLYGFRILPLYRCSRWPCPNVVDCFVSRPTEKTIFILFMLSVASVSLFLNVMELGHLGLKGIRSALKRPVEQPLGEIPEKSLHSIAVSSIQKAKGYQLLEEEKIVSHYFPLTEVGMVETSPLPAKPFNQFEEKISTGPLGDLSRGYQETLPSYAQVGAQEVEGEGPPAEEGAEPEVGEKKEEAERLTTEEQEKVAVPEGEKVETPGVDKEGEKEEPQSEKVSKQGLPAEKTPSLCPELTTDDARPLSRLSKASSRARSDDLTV

Variant | effect of a mutation on the interaction
G123D | with no effect

Variants of: B7
Settings: with ki2l3_human KIR2DL3, P43628
ki2l3_human KIR2DL3, P43628, sequence (P43628 whole entry): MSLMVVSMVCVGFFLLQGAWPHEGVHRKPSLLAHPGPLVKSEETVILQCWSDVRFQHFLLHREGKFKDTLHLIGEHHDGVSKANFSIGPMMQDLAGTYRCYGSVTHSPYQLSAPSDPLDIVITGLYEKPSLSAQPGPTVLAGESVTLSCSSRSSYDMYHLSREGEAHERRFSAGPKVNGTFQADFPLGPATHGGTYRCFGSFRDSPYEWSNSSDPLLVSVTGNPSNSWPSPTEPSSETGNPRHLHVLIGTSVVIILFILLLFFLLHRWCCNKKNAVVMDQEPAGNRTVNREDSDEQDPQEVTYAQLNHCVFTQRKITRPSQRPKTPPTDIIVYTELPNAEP

Variant | effect of a mutation on the interaction
G123D | with no effect

Variants of: B7
Settings: with lrc25_human LRRC25, Q8N386
lrc25_human LRRC25, Q8N386, sequence (Q8N386 whole entry): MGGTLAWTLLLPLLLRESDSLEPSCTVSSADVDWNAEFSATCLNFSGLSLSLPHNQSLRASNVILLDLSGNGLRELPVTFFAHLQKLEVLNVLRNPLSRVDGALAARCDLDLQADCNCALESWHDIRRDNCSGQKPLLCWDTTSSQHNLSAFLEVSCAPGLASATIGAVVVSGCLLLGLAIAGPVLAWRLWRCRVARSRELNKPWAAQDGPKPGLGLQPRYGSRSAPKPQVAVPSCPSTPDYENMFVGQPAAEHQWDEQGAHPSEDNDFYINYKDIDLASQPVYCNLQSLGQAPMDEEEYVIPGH

Variant | effect of a mutation on the interaction
G123D | with no effect

Variants of: B7
Settings: with tm139_human TMEM139, Q8IV31
tm139_human TMEM139, Q8IV31, sequence (Q8IV31 whole entry): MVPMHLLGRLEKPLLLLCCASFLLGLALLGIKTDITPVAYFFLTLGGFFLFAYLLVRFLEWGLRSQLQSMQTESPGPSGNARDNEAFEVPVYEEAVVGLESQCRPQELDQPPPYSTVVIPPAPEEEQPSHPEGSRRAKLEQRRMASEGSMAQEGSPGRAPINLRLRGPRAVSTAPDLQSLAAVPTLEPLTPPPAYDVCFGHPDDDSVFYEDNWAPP

Variant | effect of a mutation on the interaction
G123D | with no effect
